Laboratory results reported in patent US10857209B2, “Lysosomal acid lipase and PPAR gamma ligands as immune therapies for cancer treatment” (Indiana University Research and Technology Corporation, priority 2016, dated 2020).

How the values were obtained:
Ly6G+CD11b+ cells = test: ROS level in Ly6G+CD11b+ cells by flow cytometry; format: cell-based, mouse; conditions: lal−/− Ly6G+CD11b+ cells; 20 μmol/L, 48 hours
Method: The reactive oxygen species (ROS) level and mitochondrial membrane potential in MDSCs was measured by flow cytometry. Briefly, bone marrow cells were first treated with or without 20 μmol/L 9-HODE or ethanol for 2 days. For ROS level detection, cells were harvested, washed, and stained with 2′,7′-dichlorofluorescein diacetate (2 μmol/L, Invitrogen), allophycocyanin cy7-conjugated anti-Ly6G Ab, and phycoerythrin cy7-conjugated anti-CD 11b Ab (eBioscience) at 37° C. for 15 minutes. After PBS wash, the ROS level in Ly6G^+CD11b^+ cells was analyzed using a LSRII machine (BD Biosciences).

PPARγ = target: T1, PPARγ (Mus musculus, UniProt P37238); test: T cell numbers in lal−/− mice (data not shown)
T1 construct: host or cells: lal-/- mice (lung)
T1 sequence (P37238 1-505): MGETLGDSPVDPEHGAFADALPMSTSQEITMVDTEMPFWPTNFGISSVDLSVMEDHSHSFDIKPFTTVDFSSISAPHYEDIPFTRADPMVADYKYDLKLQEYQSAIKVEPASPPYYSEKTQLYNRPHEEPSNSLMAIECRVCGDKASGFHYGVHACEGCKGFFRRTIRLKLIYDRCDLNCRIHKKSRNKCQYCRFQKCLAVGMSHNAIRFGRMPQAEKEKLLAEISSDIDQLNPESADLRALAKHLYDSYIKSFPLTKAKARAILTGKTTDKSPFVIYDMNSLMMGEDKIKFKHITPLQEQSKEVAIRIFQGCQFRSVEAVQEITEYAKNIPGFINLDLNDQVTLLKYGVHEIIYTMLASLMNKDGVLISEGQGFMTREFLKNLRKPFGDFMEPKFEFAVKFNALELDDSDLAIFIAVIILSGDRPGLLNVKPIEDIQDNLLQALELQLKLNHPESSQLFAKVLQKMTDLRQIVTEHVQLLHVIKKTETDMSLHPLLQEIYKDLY

mTOR pathway = test: Flow cytometry of mTOR pathway in gated Ly6G+CD11b+ bone marrow cells; format: cell-based, mouse; conditions: 20 μmol/L, 2 hours
Method: For in vitro PPARγ ligand treatment, 9-HODE (Cayman Chemical Co., Ann Arbor, Mich., USA) was added into the culture medium of MDSCs to a final concentration of 20 μmol/L for 24 or 48 hours. For the study of the effect of PPARγ ligand on the mTOR signaling pathway, bone marrow cells were treated with 9-HODE (20 μmol/L) for 2 hours.
Single cells from the bone marrow of 5-month-old lal^+/+ and lal^−/− mice were prepared as described in Qu et al., Cancer Res. 2009; 69:7252-7261. After 20 μmol/L 9-HODE treatment for 2 hours, cells were harvested, and labeled with anti-Ly6G and CD11b cell surface antibody (eBioscience) at 4° C. for 15 minutes. Cells were then fixed and permeabilized using BD Cytofix/Cytoperm Fixation/Permeabilization Kit (BD Biosciences) according to the manufacturer's instructions, and incubated with Alexa Fluor 647-conjugated anti-mTOR antibody, Alexa Fluor 488-conjugated anti-S6 antibody, Alexa Fluor 488-conjugated anti-pS6 (Ser235/236) antibody, and rabbit anti-pmTOR (Ser2448) antibody (Cell Signaling Technology, Beverly, Mass., USA) at 4° C. overnight. For anti-pmTOR antibody staining, cells were incubated with Alexa Fluor 647-conjugated anti-rabbit IgG in the following day. Cells were washed and ready for flow cytometry analysis. Mean fluorescence intensities of the proteins in the gated Ly6G^+CD11b^+ area were analyzed. For flow cytometry analysis, ≥10,000 cells were acquired and scored using a LSRII machine (BD Biosciences). Data were processed using the CellQuest software program (BD Biosciences).

cytokines and chemokines = test: Cytokines and chemokines in plasma (ELISA) and liver (qPCR) of LAP-Tg/KO mice; format: in vivo, mouse
Method: Total RNAs were purified from livers or isolated hepatocytes using RNeasy Mini Kits according to the manufacturer's instruction (Qiagen). Quantitative real-time RT-PCR (qPCR) was performed as described in Wu et al., Blood 2012, 119:115-126). Relative gene expression levels were analyzed using the 2^−ΔΔCT method. Primers of mouse IL-6, mouse granulocyte-macrophage colony-stimulating factor (GM-CSF), mouse macrophage colony-stimulating factor, mouse tumor necrosis factor (TNF)-α, mouse IL-2, mouse IL-4, mouse IL-17, mouse interferon (IFN)-γ, mouse monocyte chemotactic protein-1 (MCP-1), mouse chemokine ligand (CCL)-3, mouse CCL4, mouse CCL5, mouse CXCL10, and glyceraldehyde-3-phosphate dehydrogenase for qPCR were described in Qu et al. Cancer Res 2009, 69:7252-7261; Zhao et al., Oncogene 2014, 34:1938-1948.
The expression levels of IL-6, GM-CSF, MCP-1 (BD Bio-sciences), and CCL5 (R&D Systems, Minneapolis, Minn.) in the plasma and hepatocyte culture medium were measured using enzyme-linked immunosorbent assay (ELISA) kits according to the manufacturer's instructions.

[1] = Histology and morphometry of organs in CCSP-Tg/KO mice (lung epithelial hLAL expression); format: in vivo, mouse
Description: Wild-type (lal^+/+) and lal^−/− mice of the FVB/N background were bred in house. CCSP-rtTA/(TetO)7-CMV-hLAL; lal^−/− (CCSP-Tg/KO) triple mice were generated by crossbreeding previously made CCSP-rtTA transgenic mice and (TetO)7-CMV-hLAL transgenic mice into lal^−/− mice. This triple transgenic mouse model is lung AT II epithelial cells-specific Tet-on expression of wild-type human LAL (hLAL) in lal^−/− mice under the control of the CCSP promoter. All scientific protocols involving the use of animals were approved by the Institutional Animal Care and Use Committee of Indiana University School of Medicine and followed guidelines established by the Panel on Euthanasia of the American Veterinary Medical Association. Animals were housed under Institutional Animal Care and Use Committee-approved conditions in a secured animal facility at Indiana University School of Medicine.
The lungs were harvested and fixed with 4% paraformaldehyde in PBS at 4° C. overnight. After embedding in paraffin, tissue sections were cut to 5 μm thick. Hematoxylin and eosin (H&E) staining was performed by the Histological Core Facility, Department of Pathology and Laboratory Medicine, Indiana University. […] Images were analyzed by Nikon NIS Elements imaging software. […] The alveoli were assessed by area, diameter and perimeter using the integrated morphometry analysis tool. […]

[2] = doxycycline-untreated LAP-Tg/KO triple mice (hLAL on)

Molecule	ROS production (Ly6G+CD11b+ cells)	decreased T cell numbers in lal−/− mice (PPARγ)	phosphorylation of S6 (MFI) (mTOR pathway; gated lal−/− Ly6G+CD11b+ cells)	phosphorylation of mTOR (MFI) (mTOR pathway; gated lal−/− Ly6G+CD11b+ cells)	overall levels of mTOR and S6 (mTOR pathway; lal−/− MDSCs)	liver IL-4 and IL-17 mRNA levels (cytokines and chemokines; [2])	liver mRNA levels of IL-2 and IFN-γ (cytokines and chemokines; [2])	liver mRNA levels of IL-6, GM-CSF, M-CSF and TNF-α (cytokines and chemokines; [2])	liver mRNA of chemokines MCP-1, CCL3, CCL4, CCL5 and CXCL10 (cytokines and chemokines; [2])	plasma concentrations of IL-6, GM-CSF, MCP-1 and CCL5 (ELISA) (cytokines and chemokines; untreated (hLAL on) vs doxycycline-treated LAP-Tg/KO mice)	liver and spleen pathology ([1]; doxycycline-treated vs untreated CCSP-Tg/KO mice)	lung damage (emphysema, alveolar area, diameter, perimeter) ([1]; lung epithelial expression, doxycycline-treated CCSP-Tg/KO mice)
9-hydroxyoctadecadienoic acid [9-HODE]	suppressed the increased ROS production	reversed	decreased phosphorylation of S6	decreased phosphorylation of mTOR	reduced the overall levels of mTOR and S6							
hLAL: human lysosomal acid lipase expressed from a doxycycline-controlled tissue-specific transgene in lal−/− mice; never administered as a protein (protein, left off: small tags and cut ends, human lysosomal acid lipase expressed from a doxycycline-controlled tissue-specific transgene in lal−/− mice; never administered as a protein) GPKPVVFLQHGLLADSSNWVTNLANSSLGFILADAGFDVWMGNSRGNTWSRKHKTLSVSQDEFWAFSYDEMAKYDLPASINFILNKTGQEQVYYVGHSQGTTIGFIAFSQIPELAKRIKMFFALGPVASVAFCTSPMAKLGRLPDHLIKDLFGDKEFLPQSAFLKWLGTHVCTHVILKELCGNLCFLLCGFNERNLNMSRVDVYTTHSPAGTSVQNMLHWSQAVKFQKFQAFDWGSSAKNYFHYNQSYPPTYNVKDMLVPTAVWSGGHDWLADVYDVNILLTQITNLVFHESIPEWEHLDFIWGLDAPWRLYNKIINLMRKYQ						unchanged	reduced mRNA levels	significantly down-regulated	markedly down-regulated	decreased	no improvement in the liver and spleen	partially restored
